Source: PMC4786692

Tests used:
[1] = molecular target: VEGF-165 (R&D Systems) (human); test: MSD receptor binding inhibition assay; VEGFR1 coated at […]; anti-VEGF molecule added 10 min before VEGF-165 (10 ng/ml final); 2 h room temperature; bound VEGF detected with biotinylated anti-VEGF and streptavidin sulfo-TAG
[2] = molecular target: VEGF-165 (R&D Systems) (human); test: MSD receptor binding inhibition assay; VEGFR2 coated at […]; anti-VEGF molecule added 10 min before VEGF-165 (10 ng/ml final); 2 h room temperature; bound VEGF detected with biotinylated anti-VEGF and streptavidin sulfo-TAG
Human VEGF-A121 (human) = test: MSD (meso scale discovery) plate binding assay; VEGF ligand coated at 2 μg/ml on MSD high bind plate; anti-VEGF molecule added in 0.1% BSA/PBS, 2 h room temperature; detection with sulfo-TAG anti-human IgG (Fc-specific); n = 3
[3] = molecular target: Human VEGF_(1–165) (human); test: as above
Murine VEGF-A164 (mouse) = test: as above
[4] = molecular target: Human VEGF_(1–165) (human); test: SEC-MALS; input proteins and complexes at input molar ratios 1:2, 2:1, 4:1 (dual dAb-VEGF) and 1:1, 1:2, 2:1, 4:1 (bevacizumab-VEGF); Superdex 200 column; PBS pH 7.4
VEGF dual dAb (human) [5] = test: SPR; Biacore T200, C1 chip; VEGF dual dAb captured on immobilised protein A (20 RU); VEGF injected at 0.03-32 nM (32 nM curves removed), 60 μl/min; 37 °C, HBS-EP; 1:1 model; triplicate
VEGF dual dAb (human) [6] = test: SPR; ProteOn GLM chip; VEGF dual dAb alone or in complex with VEGF-165 immobilised by amine coupling; FcRn injected at 3.9-1000 nM; 25 °C, HBS-EP pH 6; equilibrium model
[7] = molecular target: VEGF dual dAb in complex with human VEGF-165 (human); test: as above
Chain of VEGF dual dAb in complex with human VEGF-165 (human) (heavy, as listed by the source, chain 1 of 2): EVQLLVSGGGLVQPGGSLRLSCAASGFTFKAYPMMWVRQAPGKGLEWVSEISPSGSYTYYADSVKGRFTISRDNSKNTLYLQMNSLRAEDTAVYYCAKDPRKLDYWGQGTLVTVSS
Chain of VEGF dual dAb in complex with human VEGF-165 (human) (light, as listed by the source, chain 2 of 2): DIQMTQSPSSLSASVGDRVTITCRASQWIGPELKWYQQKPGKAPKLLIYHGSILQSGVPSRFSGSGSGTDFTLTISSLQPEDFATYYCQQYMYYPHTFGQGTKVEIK

Chain of Aflibercept (Fc fusion) (chain): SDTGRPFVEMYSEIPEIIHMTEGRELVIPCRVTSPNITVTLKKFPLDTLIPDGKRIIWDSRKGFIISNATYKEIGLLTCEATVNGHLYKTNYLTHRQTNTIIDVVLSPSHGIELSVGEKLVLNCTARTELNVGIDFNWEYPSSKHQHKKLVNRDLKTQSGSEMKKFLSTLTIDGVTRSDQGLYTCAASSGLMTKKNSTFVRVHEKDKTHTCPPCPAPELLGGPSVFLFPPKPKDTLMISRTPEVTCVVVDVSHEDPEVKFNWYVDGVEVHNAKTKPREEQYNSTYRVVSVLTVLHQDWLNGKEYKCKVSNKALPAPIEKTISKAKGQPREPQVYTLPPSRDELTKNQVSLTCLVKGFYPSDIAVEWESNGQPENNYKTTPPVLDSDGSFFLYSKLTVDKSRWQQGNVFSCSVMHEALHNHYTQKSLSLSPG
Chain of VEGF dual dAb (human) (heavy, as listed by the source, chain 1 of 2): as the sequence (heavy, as listed by the source, chain 1 of 2) above
Chain of VEGF dual dAb (human) (light, as listed by the source, chain 2 of 2): as the sequence (light, as listed by the source, chain 2 of 2) above
Chain of Human FcRn (P55899 24-365): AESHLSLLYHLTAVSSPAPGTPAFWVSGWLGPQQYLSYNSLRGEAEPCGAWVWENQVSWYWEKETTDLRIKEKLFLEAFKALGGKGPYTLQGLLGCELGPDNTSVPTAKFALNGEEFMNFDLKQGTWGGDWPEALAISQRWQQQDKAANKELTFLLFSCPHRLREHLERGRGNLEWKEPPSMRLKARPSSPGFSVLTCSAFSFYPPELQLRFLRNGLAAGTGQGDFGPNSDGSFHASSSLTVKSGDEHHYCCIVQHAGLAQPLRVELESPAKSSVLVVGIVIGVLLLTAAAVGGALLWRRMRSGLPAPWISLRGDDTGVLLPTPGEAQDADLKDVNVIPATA
Chain of Human FcRn (P61769 21-119): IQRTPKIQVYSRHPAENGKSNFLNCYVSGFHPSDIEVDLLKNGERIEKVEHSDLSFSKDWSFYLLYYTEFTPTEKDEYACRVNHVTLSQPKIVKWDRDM

| Substance | Kd (VEGF dual dAb (human) [5]) [nM] | koff (VEGF dual dAb (human) [5]) [s⁻¹] | kon (VEGF dual dAb (human) [5]) [M⁻¹ s⁻¹] | further results |
| --- | --- | --- | --- | --- |
| Aflibercept (Fc fusion) | – | – | – | IC50 [1]: 0.075 nM; IC50 [2]: 0.032 nM; EC50 (Human VEGF-A121 (human)): 0.317 nM; EC50 [3]: 0.086 nM; EC50 (Murine VEGF-A164 (mouse)): 0.095 nM |
| Human VEGF_(1–165) (ligand) | 0.00717 | 4.76e-05 | 6.63e+06 | stoichiometry N [4]: 2 |
| Human FcRn (from UniProt P55899 24-365; P61769 21-119) (receptor) | – | – | – | Kd (VEGF dual dAb (human) [6]): 325 nM; Kd [7]: 479 nM |
| Human VEGF-A165, E. coli expressed (ligand) | 0.00994 | 8.08e-05 | 8.13e+06 | – |
| Murine VEGF-A164 (ligand) | 0.0065 | 5.19e-05 | 8e+06 | – |
